# Measured values taken from patent US20170253656A1 (SUTRO BIOPHARMA, published 2017).
# Positions count from the first letter of the chain named.
# T1: hu-CD74 antigen (R&D SYSTEMS catalog #3590-CD-050) (human, UniProt P04233-2 73-232, limits assumed)
# T1 construct: Bought antigen; also called rhCD74; human CD74
# T1 sequence (looked up): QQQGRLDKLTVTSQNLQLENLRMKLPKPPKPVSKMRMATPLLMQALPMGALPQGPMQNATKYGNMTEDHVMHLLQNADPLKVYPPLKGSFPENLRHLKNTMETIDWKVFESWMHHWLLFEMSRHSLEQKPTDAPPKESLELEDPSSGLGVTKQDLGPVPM
# B1: 1337-A05 light chain paired with VH 1251-A06 (SEQ ID NO: 236) (Fab, V domains shown)
# VH: QVQLVESGGGVVQPGRSLRLSCAASGFDFSSYGMHWVRQAPDKGLEWVAVIWDDGSDRYYADSVKGRFTISRDNSKNTLYLQMNSLRAEDTAVYYCARGGTRVLGAIHGTDVWGQGTTVTVSS
# VL: DIQMTQSPSSLSASVGDRVTITCRASQGIGRWVAWYQQKPEKAPKSLIYGADRLQSGVPSRFSGSGSGTDFTLTISSLQPEDFATYYCQQYNSYPLTFGGGTKVEIK
# notes: 'in Fab format'
# B2: 1337-A08 light chain paired with VH 1251-A06 (SEQ ID NO: 236) (Fab, V domains shown)
# VH: B1 VH
# VL: B1 VL with G28D, R31S, G50A, A51S, R53S
# notes: 'in Fab format'
# B3: 1337-A09 light chain paired with VH 1251-A06 (SEQ ID NO: 236) (Fab, V domains shown)
# VH: B1 VH
# VL: B1 VL with R31S, V33L, G50A, N92H, S93T
# notes: 'in Fab format'
# B4: 1337-A06 light chain paired with VH 1251-A06 (SEQ ID NO: 236) (Fab, V domains shown)
# VH: B1 VH
# VL: B1 VL with G28D, R31S
# notes: 'in Fab format'
# B5: 1337-A10 light chain paired with VH 1251-A06 (SEQ ID NO: 236) (Fab, V domains shown)
# VH: B1 VH
# VL: B1 VL with G30S, R31S, A51S, D52S, S93T
# notes: 'in Fab format'
# B6: 1337-A07 light chain paired with VH 1251-A06 (SEQ ID NO: 236) (Fab, V domains shown)
# VH: B1 VH
# VL: B1 VL with G30S, R31S, D52S, N92H, S93T
# notes: 'in Fab format'
# B7: 1193-B06 (scFv)
# scFv: EVQLLESGGGLVQPGGSLRLSCAASGFTFTGNWMSWVRQAPGKGLEWVGIIYGTSGATYYADSVKGRFTISRDNSKNTLYLQMNSLRAEDTAVYYCAKPSMSGSRGFDYWGQGTLVTVSSGGGGSGGGGSGGGGSEIVLTQSPGTLSLSPGERATLSCRAGQSVSSSYLAWYQQKPGQAPRLLIYGASSRATGIPDRFSGSGSGTDFTLTISRLEPEDFAVYYCQQHYTTPPTFGQGTKVEIK
# notes: Called scFv clone; VH3-23 / Vk3-A27; Biacore capture was on anti-human Fc, so an Fc may have been attached
# B8: 1193-C08 (scFv)
# scFv: EVQLLESGGGLVQPGGSLRLSCAASGFTFNNNWMSWVRQAPGKGLEWVGIINGDDGYTYYADRVKGRFTIIRDNSKNTLYLQMNSLRAEDTAVYYCAKVALGRPRRFDYWGQGTLVTVSSGGGGSGGGGSGGGGSEIVLTQSPGTLSLTPGERATLSCRASQSVSSNYLAWYQQKPGQAPRLLIYGASSRATGIPDRFSGSGSGTDFTLTISRLEPEDFAMYYCQQHYTTPPTFGQGTKVEIK
# notes: Called scFv clone
# B9: 1193-H04b (scFv)
# scFv: EVQLLESGGGLVQPGGSLRLSCAASGFTFTSSWMSWVRQAPGKGLEWVGIINGYNGITYYADSVKGRFTISRDNSKNTLYLQMNSLRAEDTAVYYCAKPSAPGARRFDYWGQGTLVTVSSGGGGSGGGGSGGGGSEIVLTQSPGTLSLSPGEATLSCRASQSVSSSYLAWYQQRPGQAPRLLIYGASSRATGIPDRFSGSGSGTDFTLTISRLEPEDFAVYYCQQHYTTPPTFGQGTKVEIK
# notes: Called scFv clone
# B10: 1193-E06b (scFv)
# scFv: EVQLLESGGGLVQPGGSLRLSCAASGFTFNNTDMSWVRQAPGKGLEWVGIINGSGGATNYADSVKGRFTISRDNSKNTLYLQMNSLRAEDTAVYYCAKFENEWEVSMDYWGQGTLVTVSSGGGGSGGGGSGGGGSEIVLTQSPGTLSLSPGERATLSCRASQSVSSSYLAWYQQKPGQAPRLLIYGASSRATGIPDRFSGSGSGTDFTLTISRLEPEDFAVYYCQQHYTTPPTFGQGTKVEIK
# notes: Called scFv clone
# B11: 1198-D03 paired with trastuzumab LC (Fab, V domains shown)
# VH: EVQLVESGGGLVQPGGSLRLSCAASGFNINNYDIHWVRQAPGKGLEWVANIDPYNGATYYADSVKGRFTISADTSKNTAYLQMNSLRAEDTAVYYCARVLWGFWAPFDYWGQGTLVTVSS
# VL: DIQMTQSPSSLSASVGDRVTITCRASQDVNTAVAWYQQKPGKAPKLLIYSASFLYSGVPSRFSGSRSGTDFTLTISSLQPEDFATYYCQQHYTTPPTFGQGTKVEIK
# notes: Called Fab clone
# B12: 1198-D04 paired with trastuzumab LC (Fab, V domains shown)
# VH: B11 VH with A57T, L100P
# VL: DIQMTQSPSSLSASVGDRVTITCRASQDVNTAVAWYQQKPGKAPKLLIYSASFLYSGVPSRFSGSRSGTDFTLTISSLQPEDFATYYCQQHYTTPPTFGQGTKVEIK
# notes: Called Fab clone
# B13: 1198-B10 paired with trastuzumab LC (Fab, V domains shown)
# VH: EVQLVESGGGLVQPGGSLRLSCAASGFNISGSWIHWVRQAPGKGLEWVGYIYPDDGDTYYADSVKGRFTISADTSKNTAYLQMNSLRAEDTAVYYCAREGSHNLDKMDYWGQGTLVTVSS
# VL: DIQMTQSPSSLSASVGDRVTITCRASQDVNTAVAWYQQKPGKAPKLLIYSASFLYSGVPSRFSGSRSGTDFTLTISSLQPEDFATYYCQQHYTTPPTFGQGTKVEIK
# notes: Called Fab clone
# B14: 1198-A01 paired with trastuzumab LC (Fab, V domains shown)
# VH: EVQLVESGGGLVQPGGSLRLSCAASGFTFSDYDMSWVRQAPGKGLEWVGFIAQDGSYKYYVDSVKGRFTISRDNAKNSLYLQMNSLRAEDTAVYYCARSKLFRAGQFDYWGQGTLVTVSS
# VL: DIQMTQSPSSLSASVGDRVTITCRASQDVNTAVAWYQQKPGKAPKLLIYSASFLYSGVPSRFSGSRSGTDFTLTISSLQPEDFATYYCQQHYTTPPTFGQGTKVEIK
# notes: Called Fab clone
# Target: T1, hu-CD74 antigen (R&D SYSTEMS catalog …)
# Assay: SPR (Biacore T200), captured on anti-human Fc, rhCD74 analyte
Binder,Kd [nM],koff [s⁻¹],kon [M⁻¹ s⁻¹]
B1,0.179,0.000156,869000
B2,0.178,0.000134,749000
B3,0.135,0.000134,994000
B4,0.184,0.000144,785000
B5,0.172,0.000161,935000
B6,0.18,0.000141,785000

# Target: T1, hu-CD74 antigen (R&D SYSTEMS catalog …)
# Assay: as above
# Remark: another data set of the same source
Binder,Kd [nM],koff [s⁻¹],kon [M⁻¹ s⁻¹]
B7,29,0.0274,946000
B8,78.2,0.00908,116000
B9,63.8,0.00824,129000
B10,0.668,0.000651,975000

# Target: T1, hu-CD74 antigen (R&D SYSTEMS catalog …)
# Assay: as above
# Remark: another data set of the same source
Binder,Kd [nM],koff [s⁻¹],kon [M⁻¹ s⁻¹]
B11,3.25,0.00636,1.95e+06
B12,6.58,0.00177,268000
B13,11.9,0.00286,241000
B14,6.6,0.00119,179000
